In the RNAGym collection of RNA variant scans (doi:10.1073/pnas.2313332121):

B1: TPR t1 (parent)
chain: GACCAAUCUGCCCUCAGAGCUCGAGAACAUCUUCGGAUGCAGAGGAGGCAGGCUUCGGUGGCGCGAUAGCGCCAACGUCCUCAACCUCCAAUGCAUCCCACCACAUGAUGAUGCCUGAAGAGCCUUGGUUUUUUG

Variants of: B1
Test: polymerase ribozyme fitness, log enrichment relative to wild type (log ratio); higher = more active; in vitro selection for triplet polymerase activity
Procedure, shortened: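 Only genotypes with ≥10 input reads and ≥1 read per output were kept after Illumina sequencing of input and output libraries. These libraries were PCR-built, transcribed mutants of each subunit of a heterodimeric triplet polymerase ribozyme, each put through one triplicate in vitro selection round with frozen incubation at −7 °C, gel excision of extended constructs, streptavidin-bead capture and RT-PCR. Fitness is a logarithmic ratio of genotype enrichment to wild-type enrichment, from inverse-variance-weighted replicate averages, with the logarithm in base 2.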

Row | Variant | polymerase ribozyme fitness (log ratio)
1 | GACCAAUCUGCCCUCAGAGCUCGAGAACAUCUUCGGAUGCAGAGGAGGCAGGUUUCGGUGGCGCGAUAGCGCCAACGUCCUCAACCUCCAAUGCAUCCCACCAAAUGAUGAUGCCUGAAGAGCCUUGGUUUUUUG | -1.8
2 | GACCAAUCUGCCCUCAGAGCUCGAGAACAUCUUCGGAUGCAGAGGAGGCAGGUUUCGGUGGCGCGAGAGCGCCAACGUCCUCAACCUCCAAUGCAUCCCACCACAUGAUGAUGCCUGAAGAGCGUUGGUUUUUUG | -7.17
3 | GACCAAUCUGCCCUCAGAGCUCGAGAACAUCUUCGGAUGCAGAGGAGGCAGGUUUCGGUGGCGCGAUAGCACCAACGUCCUCAACCUCCAAUGCAUCCCAGCACAUGAUGAUGCCUGAAGAGCCUUGGUAUUUUG | -3.93
4 | GACCAAUCUGCCCUCAGAGCUCGAGAACAUCUUCGGAUGCAGAGGAGGCAGGUUACGGUGGCGCGAUAGCGCCAACGUCCUCAACCUCCAAUGCAUCCCACCACAUGAUGAUGCCUGAAGAGCCUUGGUUUUUUG | -0.075
5 | GACCAAUCUGCCCUCAGAGCUCGAGAACAUCUUCGGAUGCAGAGGAGGCAGGCAUCGGUGGCGCGAUAGUGCCAACGUCCUCAACCUCCAAUGAAUCCCACCACAUGAUGAUGCCUGAAGAGCCUUGGUUUUUUG | -1.72
6 | GACCAAUCUGCCCUCAGAGCUCGAGAACAUCUUCGGAUGCAGAGGAGGCAGGUUUCAGUCACGCGAUAGCGCCAACGUCCUCAACCUCCAAUGCAUCCCACCACAUGAUGAUGCUUGAAGAGCCUUGGUUUUUUG | -4.03
7 | GACCAAUCUGCCCUCAGAGCUCGAGAACAUCUUCGGAUGCAGAGGAGGCAGGUUUCGGUGGCGCGAUAGCGCCAACUUCCUCAACCUCCAAUGCAUCCCACCACAUGAUGAUGCCUGAAGAGCCUUGGUUUAUUG | -0.78
8 | GACCAAUCUGCCCUCAGAGCUCGAGAACAUCUUCGGAUGCAGAGGAGGCAGGUUUCGGUGGCGCGAUAGCGCCAACGUCCUCAACCUCCAAUGCAUCUCACCACAUGAUGAUGCCUGAAGAGCCUUGGUUUUUUG | -1.46
9 | GACCAAUCUGCCCUCAGAGCUCGAGAACAUCUUCGGAUGCAGAGGAGGCAGGUUUCGGUGGCGCGAUAUCGCUAACGUCCUCAACCUCCAAUGCAUCCCACCACAUGAUGAUGCCUGAAGAGCCUUGGUUUUUUG | 0.0642
10 | GACCAAUCUGCCCUCAGAGCUCGAGAACAUCUUCGGAUGCAGAGGAGGCAGGCAUCGGUGGCGCGAUAGCGUCAACGUCCUCAACCUCCAAUGCAUCCCACGACAUGAUGAGGCCUGAAGAGCCUUGGUUUUUUG | -5.88
11 | GACCAAUCUGCCCUCAGAGCUCGAGAACAUCUUCGGAUGCAGAGGAGGCAGGUUUCGGUGUCGCGAUAGCGCCAACGCCCUCAACCUCCAAUGCAUCCCACCACAUGAUGAUGCCUGAAGAGCCUUGGUUUUUUG | 0.151
12 | GACCAAUCUGCCCUCAGAGCUCGAGAACAUCUUCGGAUGCAGAGGAGGCAGGUUUCGGAGGCGCGAUAGCGCCAACGUCCUCAUCCUCCAAUGCAUCCCACCACAUGAUGAUGCCUGAAGAGCCUCGGUUUUUUG | -2.21
13 | GACCAAUCUGCCCUCAGAGCUCGAGAACAUCUUCGGAUGCAGAGGAGGCAGGUUUCGGUUGCGCGAUAGCGCCAACGUCCUCAACCUCCAAUGCAUCCCACCACAUGAUGAUGCCUGAAGCGCCUUGGUUUUUUG | 1.26
14 | GACCAAUCUGCCCUCAGAGCUCGAGAACAUCUUCGGAUGCAGAGGAGGCAGGCAUGGGUGACGCGAUAGCGCCAACGUCCUCAACCUCCAAUGCAUCCCACCACAUGAUGAUGCCUGAAGAGCCUUGGUUUUUUG | -0.683
15 | GACCAAUCUGCCCUCAGAGCUCGAGAACAUCUUCGGAUGCAGAGGAGGCAGGUUUCGGUGGCGCGAUAGCGCCAACGUCCUCAACCUCCAAUGCAUCCCACUACAUGAUGAUGCCUGAAGAGCCUUGGUUUUUUG | -2.44
16 | GACCAAUCUGCCCUCAGAGCUCGAGAACAUCUUCGGAUGCAGAGGAGGCAGGUUUCGGUGGCGCGAUAGCGCCAACGUCCUCAACCUCCAAUGCAUCCCACCACAUGAUGAAGCCUGAAGAGCCUUGGUUUUUUG | 0.78
17 | GACCAAUCUGCCCUCAGAGCUCGAGAACAUCUUCGGAUGCAGAGGAGGCAGGUUUCGGUGGCGCGAUAGCGCCAACGUCCUCAACCUCCAAUGCACCCCACCACAUGAUGAUGCCUGAAGAGCCUUGGUUUUUUG | -0.173
18 | GACCAAUCUGCCCUCAGAGCUCGAGAACAUCUUCGGAUGCAGAGGAGGCAGGUUUCGGUUGCGCGAUAGCGCCAACGUCCUCAACCUCCAAUGCAUCCCAUCCCAUGAUGAUGCCUGAAGAGCCUUGGUUUUUUG | -5.14
19 | GACCAAUCUGCCCUCAGAGCUCGAGAACAUCUUCGGAUGCAGAGGAGGCAGGUUUCGGUGGCGCGAUAGCGCCAACGUCCUCAACCUCCAAUGAAUCCCACCACAUGAUGAUGCCUGAAGCGCCUUGGUUUUUUG | 0.891
20 | GACCAAUCUGCCCUCAGAGCUCGAGAACAUCUUCGGAUGCAGAGGAGGCAGGUUUCGGUGGCCCGAUAGCGCCAACGUCCUCAACCUCCAAUGCAUCCCACCACAUGAUGAUGCCUGAAGAGCCUUGGUUUUUUG | -2.11
21 | GACCAAUCUGCCCUCAGAGCUCGAGAACAUCUUCGGAUGCAGAGGAGGCAGGUUUCGGUCGCGCGAUAGCGCCAACGUCCUCAACCACCAAUGCAUCCCACCACAUGAUGAUGCCUGAAGAGCCUUGGUUUUUUG | -1.09

Row | Variant | polymerase ribozyme fitness (log ratio)
22 | GACCAAUCUGCCCUCAGAGCUCGAGAACAUCUUCGGAUGCAGAGGAGGCAGGUUUCGGCGGCGCGAUAGCGCCAACGUCCUCAACCUCAAAUGCAUCCCACCAUAUGAUGAUGCCUCAAGAGCCUUGUUUUUUUG | -6.6
23 | GACCAAUCUGCCCUCAGAGCUCGAGAACAUCUUCGGAUGCAGAGGAGGCAGGUGUUGGUGGCGCGAUAGCGCCAACGUCCUCAACCUCCAAUGCAUCCCACCACAUGAUGAUGCCUGAAGAGCCUUGGCUUUGUG | -0.985
24 | GACCAAUCUGCCCUCAGAGCUCGAGAACAUCUUCGGAUGCAGAGGAGGCAGGUUUCGGUGGCGCGAUAGCGCCAACGUCCUCAACCUCCAAUGCAUCCGACCACAUGAUGAUGCCUGAGGAGCCUUGGUUUUUUG | -7.41
25 | GACCAAUCUGCCCUCAGAGCUCGAGAACAUCUUCGGAUGCAGAGGAGGCAGGUUUCGGUGUCGCGAUAGCGCCAACGUCCUCAACCUCCAAUGCAUCCCACCACAUGAUGAUGUCUGAAGAGCCUUGGUUUUUUG | -2.37
26 | GACCAAUCUGCCCUCAGAGCUCGAGAACAUCUUCGGAUGCAGAGGAGGCAGGUUUCGGUGGCCCGAUAGCGCCAACGUCCUCAACCUCCAAUGCAUCGCACCACAUGAUGAUGCCUGAAGAGCCUUGGUUUUUUG | -6.12
27 | GACCAAUCUGCCCUCAGAGCUCGAGAACAUCUUCGGAUGCAGAGGAGGCAGGUUUCGGUGGCGCGAUAGCGCCAACGACCUCAACCUCCAAUGCAUCCCACCUCAUGAUGAUGCCUGAAGCGCCUUGGUUUCUUG | -4.38
28 | GACCAAUCUGCCCUCAGAGCUCGAGAACAUCUUCGGAUGCAGAGGAGGCAGGUUUCGGUGGCGCGAUAGCACAAACCUCUUCAACCUCCAAUGCAUCCCACCACAUGAUGAUGCCUGAAGAGCCUUGGUUUUUUG | -6.09
29 | GACCAAUCUGCCCUCAGAGCUCGAGAACAUCUUCGGAUGCAGAGGAGGCAGGCAUCGGUGGCGCGAUAGCGCCAACGUCCUCAACUUCCAAUGCAUCCCACCACAUGAUGAUGCCUGAAGAGCUUUGGUUUUUUG | 1.14
30 | GACCAAUCUGCCCUCAGAGCUCGAGAACAUCUUCGGAUGCAGAGGAGGCAGGUUUCGGGGGCGCGAUAGCGCCAACGUCCUCAACCUCCAAUGCAUCCCACCACAUGAUGAUGCCUGAAGAGCCUUGGUUUUUUG | -0.253
31 | GACCAAUCUGCCCUCAGAGCUCGAGAACAUCUUCGGAUGCAGAGGAGGCAGGCAUCGGUGGCGCGAUAGCGCUAACGUCCUCAACCUCCAAUGCAUCCCACCACAUGAUGAUGCCUGAAGUGCCUUGGUAUUUUG | 2.07
32 | GACCAAUCUGCCCUCAGAGCUCGAGAACAUCUUCGGAUGCAGAGGAGGCAGGUUUCGGUGGCGCGAUAGCGCCAACGUCCUCAACCUCCAAUACAUCCCACCACAUGAUGAUGCCUGAAGAGCCUUGGUUUUUUG | -0.887
33 | GACCAAUCUGCCCUCAGAGCUCGAGAACAUCUUCGGAUGCAGAGGAGGCAGGUUUCGGUGGCGCGAUAGCACCAACGUCCUCAACCUCCAAUACAUCCCACCACAUGAUGAUGCCUGAAGAGCCUUGGUUUUUUG | -1.43
34 | GACCAAUCUGCCCUCAGAGCUCGAGAACAUCUUCGGAUGCAGAGGAGGCAGGUUUCGGUUGCGCGAUAGCGCCAACGUCCUCAACCUCCAAUGCAUCCCACCACAUGAUGAUGCCUGAAGAGCCUUGGUUUUUUG | 0.63
35 | GACCAAUCUGCCCUCAGAGCUCGAGAACAUCUUCGGAUGCAGAGGAGGCAGGCAUCGGUGGCGCGAUGGCUCCAACGUCGUCAACCUCCAAUGCAUCCCACGACAUGAUGAUUCCUGAAGAGCCAUGGUUUUUUG | -6.12
36 | GACCAAUCUGCCCUCAGAGCUCGAGAACAUCUUCGGAUGCAGAGGAGGCAGGCAUCGGUGGCGCGAUAGCGCCAAUGUCCUCAACCUCCAAUGCAUCCCACCACAUGAUGAUGCCUGAAGAGCCUUGGUUUUUUG | -0.995
37 | GACCAAUCUGCCCUCAGAGCUCGAGAACAUCUUCGGAUGCAGAGGAGGCAGGUUUCGGUGGCGCGAUAACGCCAACGUCCUCACCCUCCAAUGCAUCCCACCACAUGAUGAUGCCUGAAGAGCCUUGGUUUUUUG | -3.13
38 | GACCAAUCUGCCCUCAGAGCUCGAGAACAUCUUCGGAUGCAGAGGAGGCAGGUUUCGGUGGCGCGAUAGCGCCAACGUCCUCAACCUCCAAUGAAUCCCACCACAUGAUGAUGCCUGAAGAGCCUUGGCUUUUUG | -1.99
39 | GACCAAUCUGCCCUCAGAGCUCGAGAACAUCUUCGGAUGCAGAGGAGGCAGGCAUCGGUGGCGCGAUAGCGCCAACGUCCUCAACCUGUAAUGCAUCCCACCACAUGAUGAUGCAUGAAGAGCCUUGGUUUUUUG | -1.42
40 | GACCAAUCUGCCCUCAGAGCUCGAGAACAUCUUCGGAUGCAGAGGAGGCAGGCAUCGGUGGCGCGAUAGCGCCAACGUCCUCAACCUCCAAUGCAUCCCACCACAUGAUGAUGCCUGAGGAGCCUUGGUUUUUUG | 0.648
41 | GACCAAUCUGCCCUCAGAGCUCGAGAACAUCUUCGGAUGCAGAGGAGGCAGGUUUCGGUGGCGCGAUAGCUCCAACGUCCUCAACCUCCAAUGCAUCCCACCACAUGAUGAUGCCUGAAGAGCCUUAGUUUUUUG | -1.14
42 | GACCAAUCUGCCCUCAGAGCUCGAGAACAUCUUCGGAUGCAGAGGAGGCAGGCAUCGGUGGCGCGAUAGCGCCAACGUCCUCAAUCUCCAAUGCAUUCCACCACAUGAUGAUGCCUGAAGAGCCUUGGUUUUUUG | -1.5
